test: yeast display, Sf9 membrane polyspecificity reagent, FACS + sequencing; frameworks hold sequencing errors
In short: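 A synthetic nanobody library was expressed on Saccharomyces cerevisiae BJ5465 by galactose induction for 36–48 hours. The library was stained for 1 hour at 4 °C with 10% biotinylated, detergent-solubilized Sf9 membrane reagent and enriched with streptavidin microbeads before FACS. Low and high (top ~1%) gates were set on anti-HA fluorescence for expression and streptavidin fluorescence for reagent binding, and each polyreactivity label reflects the gate of origin.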

Sequence	polyreactivity (PSR sort gate)
QVQLVESGGGLVQAGGSLRLSCAASGFTFSFYSMGWSRQAPGKERELVAAITSRGTSTYYADSVKGRFTISRDNAKNTVYLQMNSLKPEDTAVYYCAKLLPRGQWPYDYWGQGTQVTVSS	high polyreactivity
QVQLVESGGGLVQAGGSLRLSCAASGSTFPQNAMGWYRQAPGKERELVAAISRSGGRTYYADSVKGRFTISRDNAKNTVYLQMNILKPEDTAVYYCNAGFYQKYDYWGQGTQVTVSS	high polyreactivity
QVQLVESGGGLVQAGGSLRLSCAASGYIFSYYAMGWYRQAPGKEREFVAAIRWRGGSTYYADSVKGRFTISRDNAKKTVYLQMNSLKPEDTAVYYCAAGPGTSYYWGQGTQVTVSS	high polyreactivity
QVQLVESAGGLVQAGGSLRLSCAASGFIFPTYAMGWYRQAPGKERELVAAITTGGGSTYYADSVKGRFTISRDNAKNTVYLQMNSLKPEDTAVYYCAAEYVAQAGYGEDYWGQGTQVTVSS	low polyreactivity
QVQLVESGGGLVQAGGSLRLSCAASGLTFGDYTMGWYRQAPGKERELVAAITWSGASTYYADSVKGRFTISRDNAKNTVYLEMNSLKPEDTAGYYCAAERTPSYRAYDYWGQGTQVTVSS	low polyreactivity
QVQLVESGGGLVQAGGSLRLSCAASGFIFSYYAMGWYRQAPGKERELVAAITDSGGSTYYADSVKGRFTISRDNAKNTVYLQMNSLKPEDTAVYYCAATYWWAYVWAYSHVKSTNDYWGQGTQVTVSS	low polyreactivity
QVQLVESGGGLVQAGVSLRLSCAASGSIFSYNAMGWYRQAPGKERELVAAINNGGSTYYADSVKGRFTISRDNAKNTVYLQMNSLKPEDTAVYYCAAQSGHYAEYNYWGQGTQVTVSS	high polyreactivity
QVQLVESGGGLVQAGGSLSLSCAASGSIYWYAMGWYRQAPGKERELVSAISRRGGSTYYADSLKGRFTISRDNAKNTVYLQMNSLKPEDTAVYYCAVGIYGEYDYWGQGTQVTVSS	high polyreactivity
QVQLVETGGGLVQAGGSLRLSCAASGNTFQRYTMGWYRQAPGNERELVAAITWSGGNTYYADSVKGRFTISRDNAKNTVYLQMNSLKPVDTAVYYCNADYPTTAYDYWGQGTQVSVSS	low polyreactivity
QVQLVESGGGLVQAGGSLRLSCAASGFTFGRNAMGWYRQAPGKERELVARITTGGSTNYADSVKGRFTISRDHAKNTVDLQMNRLKPEDTAVYDCAATYRSLALFWTYGYWGQGTQVTVSS	low polyreactivity
QVELVESGGGLVQAGRSLRLSCAASGRILVSYAMGWYRQAPGKERELVAGITSGGDSTYYADSVKGRFTISRDNAKNTVYLQMNSLKPEDTAVYYCDADRDSYRGRKNVRERYTYWGQGTQVTVSS	high polyreactivity
QVQLVESGGGLVQAGGSLRLSCAASGFIFDYYAMGWYRQAPGKERELVAAISRGGSTYYADSVKGRFTISRDNAKNTVYLQMKSLKPEDTAVYYCKAMSYHFWEFDYWGQGTQVTVSS	high polyreactivity
QVQLVESGGGLDQAGRSLRLSCAASGFIFYYNAMGWYRQAPGKQRELVAAISSGGSTNYADSVKGRFTISRDNAKNTVYLQMNSLQPEDTAVYYCAKRPTGGYKYYYTTSKYDYWGQGTQVTVSS	low polyreactivity
QVQLVESGGGLVQAGGSLRLSCAASGSIFRYYAMGWYRQAPGKDRELVAVITRGGSTYYADSVKGRFTISRDNAKNTVYLQMNSLKPEDTAVYYCAADSWPAGLDRGYWGQGTQVTVSS	low polyreactivity
QVQHVESGGGLVQARGSLRLSCAASASIYPSYAMGWYRQAPGKERELVAVINSGGSTYYADSVKGRFTISRDNAKNTVYLQMNILNPEDTAGYYCAAYRRRYPRFDYWGPGTQVTVSS	high polyreactivity
QVQLVESGGGLVQAGGSLRLSCAASGRIIVDNTMGWYRQAPGQEREFVAVITSGGSTNYADSVKGRYTISRDNAKNTVYLQMNCLNPEDTAVYYCATEPGGYRFDDRPFQFGYWGQGTQVTVSS	low polyreactivity

Sequence	polyreactivity (PSR sort gate)
QVQLVESGGGLVQARGSLRLSCAASGSIFDPNAMGWSRQAPGKVRELGAAMTSGGGSTYYADSVKGRFTISRDNAKNTVYLQMNSLKPEDTAVYYCNNVFVLPYNFVAWFDYWGQGTQVTVSW	low polyreactivity
QVQLVESGGGLVQAGGSLRLSCAASGIIFDYNAMGWYRPAPGKERELVAAISGRSGRTYYADSVKGRFTISRDNAKNTVYLQMNSLKPEDTAVYYCAARWYAGGNYWGQGTQVTVSS	high polyreactivity
QVQLVESVLGLVQAGGSLRLICDASGSIFGYNVIGWYRQAPGKERELVAAITGRGDSTYYADSVKGRFTISRDNAKNTVYLQMNSLKPEDTAVYYCAAYPNQSEYYYWGQGTQVTVSS	low polyreactivity
QVQLVESGGGLVQAGGSLRLSCAASGFTFVGYPLGWYRQATGKERELVAAISVSGGRTYYADSVKGRFTISRDNAMNTVYLQMKSLNPEDTAVYYCNAASPSYADFDYWGQGTQVTVSS	high polyreactivity
QVQLVESGGGLVQAGGSLRLSCAASGFISFDNAMGWYRQAPGKERELVAAIRSGGSTNYADSVKGRFTISRDNAKNSVYLQMNSLKPEDTAVYYCAALDQYGYYQKYYYWGQGTQVTVSS	low polyreactivity
QVQLVESGGGLVQAGGSLRLSCAATGIIFHRYVMGWYRQAPGKERELVAVITQRGGSTYYADSVKGRFTISRDNAKNTVYLQMNSLKQEDTAVYYCAARSQYRDRTGQYGYWGQGSQVTVSS	high polyreactivity
QVQLVESGGGLVQAGGSLRLSCAASGIFFHYAMGWYKQAPGKERELVAAISYSGGRTYYADSVKGRFTISRDNAKNTVYLQMNSLKPEDTAVYYCAARYYIGYGHRTYGYDYWGQGTQVTVSS	high polyreactivity
QVQLVESGGGLVQAGGSLRLSCAASGSTFGYYGMGWYRQAPGKERELLAAISTGGRTNYADSVKGRFTISRDNAKNTVYLQMNSLKPEDTAVYYCAADFLSPAYRPSWYRFDYWGQGTQVTVSS	low polyreactivity
QVQLVESGGGLVQAGGSLRLSGAASGRTLVPYAMGWYRQAPGKERELVAAISSGGSTNYADSVKGRFRISRDNAKNTVYLQMNSLKPEDTAVYYCAYCGQGTQVTVSS	low polyreactivity
QVQLVESGGGLVQAGGSLRLSCAASGSIFYYYAMGWYRQAPGKERELVAAISRSGGSTYYADSVKGRFTISRDNAKNTVYLQMNSLKPEDTAVYYCNVAYGLQPYDYWGQGTQVTVSS	high polyreactivity
QVQLVESGGGLVKAGGSLRLSCAPSGSTFKSYSMGWYRQAPGIECELVAAITSGGRTYYADSVKGRFTISRDNAKNTVYLQMNSLKPEDTAVYYCAALRVQQVKSYYYWGQGTQVTVSS	high polyreactivity
QVQLVESGGGLVQAGGSLRLSCAASGSTFQRYAMGWYRQAPGKERELVAAITIRGTRTYYADSVKGRFTISRDNAKNTVYLQMNSLKPEDTAVYYCAATYYWYGHPSRRYDYWGQGTQVTVSS	high polyreactivity
QVQLVESGGGLVQAGGSLRLSCAASGRIFLPYAMGWYRQAPGKERELVAAIDTNGGSTYYADSVKGRFTISRDNAKNTVYLQMNSLKPEDSAVYYCAAEVYDYTYVVTFLYDYWGQGTQVTVSS	high polyreactivity
QVQLVESGGGLVQAGGSLRLSCAAYGSTLLTYTMGWYRQAPGKERELVASITTSGGSTYYADSVKGRFTISRDNAKNTVYLQMNSLKPEDTAVYYWGQGTQVTVSS	low polyreactivity
QVQLVESGGRLVQAGGSLRLSCAASGSTFYRNAMGWYRQAPGKERELVASINNGGSTYYADSVKGRFTISRDNAKNTVYLQMNSLKPEDTAVYYCAATESWDYDYWGQGTQVTVSS	low polyreactivity
QVQLEESGGGLVQAGGSLRLSCAASGFTFVDYVMGWYRQAPGKERELVAAISRRAGRTYYADSVKGRFTNSRDNAKNTVYFQMNSLKREDTAVYSCAAYLSRSYYAYDYWGQGTQVTVSS	high polyreactivity
